Tested on: Escherichia coli TOP10
Experiment: shrunken log2 fold change of peptide-encoding DNA abundance (4.5 h post-induction vs induction); higher = less antimicrobial activity (less host growth inhibition)
Conditions: time post-induction: 4.5 h; library: site-saturation at positions 5, 18, 19, 20
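Also: peptides expressed intracellularly from a pBAD plasmid library in pooled LB shake-flask culture, induced with 0.3% L-arabinose, DNA abundance read by NGS, three biological replicates, DESeq2 with apeglm shrinkage.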

| Sequence | shrunken log2 fold change |
| --- | --- |
| RRIRIRPPRLPRPRPRPCVFPRP | -1.22 |
| RRIRIRPPRLPRPRPRPCVMPRP | -0.106 |
| RRIRIRPPRLPRPRPRPCWMPRP | -0.222 |
| RRIRIRPPRLPRPRPRPCWSPRP | 0.0832 |
| RRIRIRPPRLPRPRPRPDASPRP | -0.00609 |
| RRIRIRPPRLPRPRPRPDCFPRP | -0.211 |
| RRIRIRPPRLPRPRPRPDCMPRP | -0.106 |
| RRIRIRPPRLPRPRPRPDDQPRP | 0.0121 |
| RRIRIRPPRLPRPRPRPDDWPRP | -0.0592 |
| RRIRIRPPRLPRPRPRPDFDPRP | -0.137 |
| RRIRIRPPRLPRPRPRPDICPRP | -0.0265 |
| RRIRIRPPRLPRPRPRPDKSPRP | -0.0563 |
| RRIRIRPPRLPRPRPRPDLCPRP | -0.101 |
| RRIRIRPPRLPRPRPRPDLLPRP | -0.634 |
| RRIRIRPPRLPRPRPRPDLTPRP | -0.00701 |
| RRIRIRPPRLPRPRPRPDLYPRP | -0.408 |
| RRIRIRPPRLPRPRPRPDMDPRP | -0.122 |
| RRIRIRPPRLPRPRPRPDMRPRP | -0.0655 |
| RRIRIRPPRLPRPRPRPDNPPRP | -0.152 |
| RRIRIRPPRLPRPRPRPDPEPRP | -0.158 |
| RRIRIRPPRLPRPRPRPDQLPRP | -0.172 |
| RRIRIRPPRLPRPRPRPDRVPRP | -0.0924 |
| RRIRIRPPRLPRPRPRPDSGPRP | 0.00524 |
| RRIRIRPPRLPRPRPRPDSMPRP | -0.00884 |
| RRIRIRPPRLPRPRPRPDSTPRP | 0.00478 |

| Sequence | shrunken log2 fold change |
| --- | --- |
| RRIRIRPPRLPRPRPRPDSVPRP | 0.0234 |
| RRIRIRPPRLPRPRPRPDTKPRP | -0.188 |
| RRIRIRPPRLPRPRPRPDTRPRP | -0.293 |
| RRIRIRPPRLPRPRPRPDWQPRP | -0.00422 |
| RRIRIRPPRLPRPRPRPDWWPRP | -0.00879 |
| RRIRIRPPRLPRPRPRPDYAPRP | -0.154 |
| RRIRIRPPRLPRPRPRPDYVPRP | 0.012 |
| RRIRIRPPRLPRPRPRPEAQPRP | 0.0863 |
| RRIRIRPPRLPRPRPRPEAYPRP | 0.00489 |
| RRIRIRPPRLPRPRPRPECKPRP | -0.259 |
| RRIRIRPPRLPRPRPRPECSPRP | -0.428 |
| RRIRIRPPRLPRPRPRPEEWPRP | -0.128 |
| RRIRIRPPRLPRPRPRPEFEPRP | -0.0399 |
| RRIRIRPPRLPRPRPRPEFQPRP | -0.129 |
| RRIRIRPPRLPRPRPRPEGPPRP | -0.0796 |
| RRIRIRPPRLPRPRPRPEKTPRP | -0.0512 |
| RRIRIRPPRLPRPRPRPELRPRP | 0.0361 |
| RRIRIRPPRLPRPRPRPEMTPRP | 0.104 |
| RRIRIRPPRLPRPRPRPEQFPRP | 0.00851 |
| RRIRIRPPRLPRPRPRPERNPRP | 0.146 |
| RRIRIRPPRLPRPRPRPESRPRP | 0.0553 |
| RRIRIRPPRLPRPRPRPESVPRP | -0.00682 |
| RRIRIRPPRLPRPRPRPETTPRP | -0.0691 |
| RRIRIRPPRLPRPRPRPFCGPRP | -0.228 |
| RRIRIRPPRLPRPRPRPFDDPRP | 0.0183 |

| Sequence | shrunken log2 fold change |
| --- | --- |
| RRIRIRPPRLPRPRPRPFFDPRP | -0.417 |
| RRIRIRPPRLPRPRPRPFFEPRP | -0.267 |
| RRIRIRPPRLPRPRPRPFGIPRP | -0.972 |
| RRIRIRPPRLPRPRPRPFGVPRP | -0.0635 |
| RRIRIRPPRLPRPRPRPFHFPRP | -0.27 |
| RRIRIRPPRLPRPRPRPFKEPRP | -0.263 |
| RRIRIRPPRLPRPRPRPFKHPRP | -1.2 |
| RRIRIRPPRLPRPRPRPFMFPRP | -0.745 |
| RRIRIRPPRLPRPRPRPFNGPRP | -0.211 |
| RRIRIRPPRLPRPRPRPFNIPRP | -0.93 |
| RRIRIRPPRLPRPRPRPFNLPRP | -0.496 |
| RRIRIRPPRLPRPRPRPFQCPRP | 0.00367 |
| RRIRIRPPRLPRPRPRPFQKPRP | -0.0135 |
| RRIRIRPPRLPRPRPRPFQVPRP | 0.0102 |
| RRIRIRPPRLPRPRPRPFRWPRP | -0.00968 |
| RRIRIRPPRLPRPRPRPFSGPRP | -0.241 |
| RRIRIRPPRLPRPRPRPFSHPRP | -0.177 |
| RRIRIRPPRLPRPRPRPFTPPRP | -0.875 |
| RRIRIRPPRLPRPRPRPFVMPRP | -0.275 |
| RRIRIRPPRLPRPRPRPFWIPRP | -0.193 |
| RRIRIRPPRLPRPRPRPFWMPRP | -0.192 |
| RRIRIRPPRLPRPRPRPFWYPRP | 0.00745 |
| RRIRIRPPRLPRPRPRPFYAPRP | -0.251 |
| RRIRIRPPRLPRPRPRPFYQPRP | 0.234 |
| RRIRIRPPRLPRPRPRPGAYPRP | -0.33 |

— the supplement of paper PMC9112550, “Optimization of the antimicrobial peptide Bac7 by deep mutational scanning” (BMC Biology, 2022)
